Publication PMC10901556, “Conservation of Affinity Rather Than Sequence Underlies a Dynamic Evolution of the Motif-Mediated p53/MDM2 Interaction in Ray-Finned Fishes” (Molecular Biology and Evolution, 2024)
Where no end group is shown, it is not given here.

Experiments:
[1] = biological target: T1, MDM2_(D.rerio) SWIB domain (Danio rerio (zebrafish)); assay: FP; details: modification not given
T1 chain: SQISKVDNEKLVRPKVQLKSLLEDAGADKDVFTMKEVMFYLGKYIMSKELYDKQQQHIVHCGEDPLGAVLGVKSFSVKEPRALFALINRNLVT

[2] = biological target: MDM2 SWIB domain from Takifugu rubripes (Japanese puffer) (Takifugu rubripes (Japanese puffer)); assay: fluorescence polarisation; displacement: complex of MDM2 (0.2-2 μM) and FITC-p53TAD_(human)^15–26 (15 nM) displaced by increasing unlabeled p53TAD peptide or p53TAD^full-length; KD calculated from IC50 (Nikolovska-Coleska et al. 2004); 20 mM sodium phosphate pH 7.4, 150 mM NaCl, 1 mM TCEP
[3] = biological target: MDM2_(H.sapiens) SWIB domain (Homo sapiens (human)); assay: as above
[4] = biological target: MDM2 SWIB domain from Lepisosteus oculatus (spotted gar) (Lepisosteus oculatus (spotted gar)); assay: as above
[5] = biological target: MDM2 SWIB domain from Maylandia zebra (Maylandia zebra); assay: as above
[6] = biological target: MDM2 SWIB domain from Anguilla anguilla (European eel) (Anguilla anguilla (European eel)); assay: as above
[7] = biological target: MDM2 SWIB domain from Oncorhynchus kisutch (coho salmon) (Oncorhynchus kisutch (coho salmon)); assay: as above
[8] = biological target: MDM2 SWIB domain from Clupea harengus (Atlantic herring) (Clupea harengus (Atlantic herring)); assay: as above
[9] = biological target: MDM2 SWIB domain from Channa argus (Channa argus); assay: as above

Q: With IQPPGGGSCWDIIND [p53TAD_(D.rerio)^30-44] as the binder, how does the Kd [1] read?
A: > 200000 nM

Q: Which Kd [2] does the source give for Ac-SQDTFQDLWENVA [Takifugu rubripes (Japanese puffer) p53TADP1 p53TAD^15–27] here?
A: 4500 nM

Q: What about the Kd [3] of the same binder?
A: 1700 nM

Q: Which results are given for Ac-SQESFQELWNMVI [Lepisosteus oculatus (spotted gar) p53TAD^15–27]?
A: Kd [4]: 390 nM; Kd [3]: 121 nM

Q: How did the Kd [5] turn out when Ac-SQDSFKELWDQLP [Maylandia zebra p53TADP1 p53TAD^15–27] was run?
A: 1600 nM

Q: What about the Kd [3] of the same binder?
A: 270 nM

Q: With IINDEEYLPGSFDPN [p53TAD_(D.rerio)^41-55] as the binder, how does the Kd [1] read?
A: > 200000 nM

Q: Which Kd [3] does the source give for Ac-SQEFAELWEKNL [Danio rerio (zebrafish) p53TADP2 p53TAD^15–27] here?
A: 4330 nM

Q: How did the Kd [1] turn out when DSQEFAELWEKN [p53TAD_(D.rerio)^14-26] was run?
A: > 200000 nM

Q: For ELWEKNLISIQPPGG [p53TAD_(D.rerio)^21-35], which Kd [1] is on record?
A: > 200000 nM

Q: What does the source list for Ac-SQESFQELWKMMC [Anguilla anguilla (European eel) p53TADP1 p53TAD^15–27]?
A: Kd [6]: 190 nM; Kd [3]: 13 nM

Q: With Ac-SQGSFQQLWETNM [Oncorhynchus kisutch p53TADP1b p53TAD^15–27] as the binder, how does the Kd [7] read?
A: 3500 nM

Q: And the Kd [3]?
A: 5150 nM

Q: For PGSFDPNFFENVLEE [p53TAD_(D.rerio)^49-63], which Kd [1] is on record?
A: 210000 nM

Q: How did the Kd [1] turn out when QNDSQEFAELWEKNLISIQPPGGGSCWDIINDEEYLPGSFDPN [p53TAD_(D.rerio)^12-55] was run?
A: 33 nM

Q: Which Kd [1] does the source give for GGSCWDIINDEEYLP [p53TAD_(D.rerio)^35-49] here?
A: > 200000 nM

Q: Which results are given for Ac-SQGTFDEIWASNF [Clupea harengus (Atlantic herring) p53TADP1 p53TAD^15–27]?
A: Kd [8]: 2600 nM; Kd [3]: 1250 nM

Q: Which Kd [9] does the source give for Ac-SQDSFRELWESVV [Channa argus p53TADP1 p53TAD^15–27] here?
A: 3300 nM

Q: What about the Kd [3] of the same binder?
A: 1100 nM

Q: Which results are given for Ac-SQDETFQALWNTVT [Anguilla anguilla p53TADP2 p53TAD^15–27]?
A: Kd [6]: 1200 nM; Kd [3]: 770 nM

Q: What does the source list for Ac-GQCSFQQLWESNM [Oncorhynchus kisutch (coho salmon) p53TADP1a p53TAD^15–27]?
A: Kd [7]: 2100 nM; Kd [3]: 3150 nM

Q: How did the Kd [7] turn out when Ac-SQESFEDLWKMNL [Oncorhynchus kisutch p53TADP2 p53TAD^15–27] was run?
A: 1160 nM

Q: And the Kd [3]?
A: 790 nM
